{
  "source": "patent US20250186614A1",
  "about": "“COMPACT DRUG RESPONSIVE DOMAINS FOR REGULATION OF FUNCTION/ABUNDANCE AND DELIVERY OF POLYPEPTIDE PAYLOADS” (OBSIDIAN THERAPEUTICS, INC., priority 2022, published 2025)",
  "system": "Jurkat cells",
  "assay": "Tacrolimus dose response of FKBP13-AcGFP-mCherry constructs stably transduced into Jurkat cells, GFP MFI by flow cytometry",
  "format": "cell-based",
  "settings": "tacrolimus; for Fold Change: Jurkat cells, Table 13",
  "summary_of_the_method": "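Jurkat E6-1 cells lentivirally transduced with FKBP13-AcGFP-mCherry constructs to 10-25% mCherry+ (day 5) were dosed with tacrolimus. GFP geometric MFI in mCherry+ cells was measured by flow cytometry and fitted to dose-response curves.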",
  "data": [
    {"molecule": "FKBP-268: FKBP13 DRD-AcGFP construct of Table 10 (protein, Description of sequence: Construct Name: FKBP-268; Mutation(s): Q72R Q84E A117W V85R DRD C42R) HRPIKSRKGDVLHMHYTGKLEDGTEFDSSLPRNQPFVFSLGTGERIKGWDQGLLGMCEGEKRKLVIPSELGYGERGWPPKIPGGATLVFEVELLKIER", "values": [
      {"measurement": "FC", "setting": "FIGS. 31 and 32", "result": 18},
      {"measurement": "Fold Change", "result": 18}
    ]},
    {"molecule": "FKBP-281: FKBP13 DRD-AcGFP construct of Table 10 (protein, Description of sequence: Construct Name: FKBP-281; Mutation(s): Q72R Q74R Q84E A117W V85R E130F K120I) HCPIKSRKGDVLHMHYTGKLEDGTEFDSSLPRNRPFVFSLGTGERIKGWDQGLLGMCEGEKRKLVIPSELGYGERGWPPIIPGGATLVFFVELLKIER", "values": [
      {"measurement": "FC", "setting": "FIG. 36", "result": 77.66},
      {"measurement": "Peak", "setting": "FIG. 36", "result": 2905},
      {"measurement": "Fold Change", "result": 77.66}
    ]},
    {"molecule": "FKBP-285: FKBP13 DRD-AcGFP construct of Table 10 (protein, Description of sequence: Construct Name: FKBP-285; Mutation(s): Q72R Q74W Q84E A117W V85R K120I) HCPIKSRKGDVLHMHYTGKLEDGTEFDSSLPRNWPFVFSLGTGERIKGWDQGLLGMCEGEKRKLVIPSELGYGERGWPPIIPGGATLVFEVELLKIER", "values": [
      {"measurement": "FC", "setting": "FIG. 37", "result": 36.71},
      {"measurement": "Peak", "setting": "FIG. 37", "result": 2161},
      {"measurement": "Fold Change", "result": 36.71}
    ]},
    {"molecule": "FKBP-279: FKBP13 DRD-AcGFP construct of Table 10 (protein, Description of sequence: Construct Name: FKBP-279; Mutation(s): Q72R Q74R Q84E A117W V85R K120I) HCPIKSRKGDVLHMHYTGKLEDGTEFDSSLPRNRPFVFSLGTGERIKGWDQGLLGMCEGEKRKLVIPSELGYGERGWPPIIPGGATLVFEVELLKIER", "values": [
      {"measurement": "FC", "setting": "FIG. 35", "result": 31.33},
      {"measurement": "Peak", "setting": "FIG. 35", "result": 3302},
      {"measurement": "Fold Change", "result": 31.33}
    ]},
    {"molecule": "FKBP-275: FKBP13 DRD-AcGFP construct of Table 10 (protein, Description of sequence: Construct Name: FKBP-275; Mutation(s): Q72R Q84E A117W V85R DRD G49D) HCPIKSRKDDVLHMHYTGKLEDGTEFDSSLPRNQPFVFSLGTGERIKGWDQGLLGMCEGEKRKLVIPSELGYGERGWPPKIPGGATLVFEVELLKIER", "values": [
      {"measurement": "FC", "setting": "FIGS. 33 and 34", "result": 56},
      {"measurement": "Fold Change", "result": 56}
    ]},
    {"molecule": "FKBP-284: FKBP13 DRD-AcGFP construct of Table 10 (protein, Description of sequence: Construct Name: FKBP-284; Mutation(s): Q72R Q74W Q84E A117W V85R E130F) HCPIKSRKGDVLHMHYTGKLEDGTEFDSSLPRNWPFVFSLGTGERIKGWDQGLLGMCEGEKRKLVIPSELGYGERGWPPKIPGGATLVFFVELLKIER", "values": [
      {"measurement": "FC", "setting": "FIG. 37", "result": 58.23},
      {"measurement": "Peak", "setting": "FIG. 37", "result": 2441},
      {"measurement": "Fold Change", "result": 58.23}
    ]},
    {"molecule": "FKBP-283: FKBP13 DRD-AcGFP construct of Table 10 (protein, Description of sequence: Construct Name: FKBP-283; Mutation(s): Q72R Q74W Q84E A117W V85R K135Y) HCPIKSRKGDVLHMHYTGKLEDGTEFDSSLPRNWPFVFSLGTGERIKGWDQGLLGMCEGEKRKLVIPSELGYGERGWPPKIPGGATLVFEVELLYIER", "values": [
      {"measurement": "FC", "setting": "FIG. 36", "result": 39.79},
      {"measurement": "Peak", "setting": "FIG. 36", "result": 1328},
      {"measurement": "Fold Change", "result": 39.79}
    ]},
    {"molecule": "FKBP-274: FKBP13 DRD-AcGFP construct of Table 10 (protein, Description of sequence: Construct Name: FKBP-274; Mutation(s): Q72R Q84E A117W V85R DRD E109K) HCPIKSRKGDVLHMHYTGKLEDGTEFDSSLPRNQPFVFSLGTGERIKGWDQGLLGMCEGEKRKLVIPSKLGYGERGWPPKIPGGATLVFEVELLKIER", "values": [
      {"measurement": "FC", "setting": "FIGS. 33 and 34", "result": 34},
      {"measurement": "Fold Change", "result": 34}
    ]},
    {"molecule": "FKBP-276: FKBP13 DRD-AcGFP construct of Table 10 (protein, Description of sequence: Construct Name: FKBP-276; Mutation(s): Q72R Q74R Q84E A117W V85R) HCPIKSRKGDVLHMHYTGKLEDGTEFDSSLPRNRPFVFSLGTGERIKGWDQGLLGMCEGEKRKLVIPSELGYGERGWPPKIPGGATLVFEVELLKIER", "values": [
      {"measurement": "FC", "setting": "FIG. 35", "result": 7.54},
      {"measurement": "Peak", "setting": "FIG. 35", "result": 2859},
      {"measurement": "Fold Change", "result": 7.54}
    ]},
    {"molecule": "FKBP-280: FKBP13 DRD-AcGFP construct of Table 10 (protein, Description of sequence: Construct Name: FKBP-280; Mutation(s): Q72R Q74R Q84E A117W V85R K135Y K120I) HCPIKSRKGDVLHMHYTGKLEDGTEFDSSLPRNRPFVFSLGTGERIKGWDQGLLGMCEGEKRKLVIPSELGYGERGWPPIIPGGATLVFEVELLYIER", "values": [
      {"measurement": "FC", "setting": "FIG. 36", "result": 68.34},
      {"measurement": "Peak", "setting": "FIG. 36", "result": 2468},
      {"measurement": "Fold Change", "result": 68.34}
    ]},
    {"molecule": "FKBP-277: FKBP13 DRD-AcGFP construct of Table 10 (protein, Description of sequence: Construct Name: FKBP-277; Mutation(s): Q72R Q74R Q84E A117W V85R K135Y) HCPIKSRKGDVLHMHYTGKLEDGTEFDSSLPRNRPFVFSLGTGERIKGWDQGLLGMCEGEKRKLVIPSELGYGERGWPPKIPGGATLVFEVELLYIER", "values": [
      {"measurement": "FC", "setting": "FIG. 35", "result": 61.04},
      {"measurement": "Peak", "setting": "FIG. 35", "result": 2581},
      {"measurement": "Fold Change", "result": 61.04}
    ]},
    {"molecule": "FKBP-282: FKBP13 DRD-AcGFP construct of Table 10 (protein, Description of sequence: Construct Name: FKBP-282; Mutation(s): Q72R Q74W Q84E A117W V85R) HCPIKSRKGDVLHMHYTGKLEDGTEFDSSLPRNWPFVFSLGTGERIKGWDQGLLGMCEGEKRKLVIPSELGYGERGWPPKIPGGATLVFEVELLKIER", "values": [
      {"measurement": "FC", "setting": "FIG. 36", "result": 39.54},
      {"measurement": "Peak", "setting": "FIG. 36", "result": 2473},
      {"measurement": "Fold Change", "result": 39.54}
    ]},
    {"molecule": "FKBP-286: FKBP13 DRD-AcGFP construct of Table 10 (protein, Description of sequence: Construct Name: FKBP-286; Mutation(s): Q72R Q74W Q84E A117W V85R K135Y K120I) HCPIKSRKGDVLHMHYTGKLEDGTEFDSSLPRNWPFVFSLGTGERIKGWDQGLLGMCEGEKRKLVIPSELGYGERGWPPIIPGGATLVFEVELLYIER", "values": [
      {"measurement": "FC", "setting": "FIG. 37", "result": 25.96},
      {"measurement": "Peak", "setting": "FIG. 37", "result": 1089},
      {"measurement": "Fold Change", "result": 25.96}
    ]},
    {"molecule": "FKBP-270: FKBP13 DRD-AcGFP construct of Table 10 (protein, Description of sequence: Construct Name: FKBP-270; Mutation(s): Q72R Q84E A117W V85R DRD L52M) HCPIKSRKGDVMHMHYTGKLEDGTEFDSSLPRNQPFVFSLGTGERIKGWDQGLLGMCEGEKRKLVIPSELGYGERGWPPKIPGGATLVFEVELLKIER", "values": [
      {"measurement": "FC", "setting": "FIGS. 33 and 34", "result": 38},
      {"measurement": "Fold Change", "result": 38}
    ]},
    {"molecule": "FKBP-271: FKBP13 DRD-AcGFP construct of Table 10 (protein, Description of sequence: Construct Name: FKBP-271; Mutation(s): Q72R Q84E A117W V85R DRD K103R) HCPIKSRKGDVLHMHYTGKLEDGTEFDSSLPRNQPFVFSLGTGERIKGWDQGLLGMCEGEKRRLVIPSELGYGERGWPPKIPGGATLVFEVELLKIER", "values": [
      {"measurement": "FC", "setting": "FIGS. 33 and 34", "result": 19},
      {"measurement": "Fold Change", "result": 19}
    ]},
    {"molecule": "FKBP-278: FKBP13 DRD-AcGFP construct of Table 10 (protein, Description of sequence: Construct Name: FKBP-278; Mutation(s): Q72R Q74R Q84E A117W V85R E130F) HCPIKSRKGDVLHMHYTGKLEDGTEFDSSLPRNRPFVFSLGTGERIKGWDQGLLGMCEGEKRKLVIPSELGYGERGWPPKIPGGATLVFFVELLKIER", "values": [
      {"measurement": "FC", "setting": "FIG. 35", "result": 92.73},
      {"measurement": "Peak", "setting": "FIG. 35", "result": 3425},
      {"measurement": "Fold Change", "result": 92.73}
    ]},
    {"molecule": "FKBP-269 (protein, Description of sequence: Construct Name: FKBP-269; Mutation(s): Q72R Q84E A117W V85R DRD H53Q) HCPIKSRKGDVLQMHYTGKLEDGTEFDSSLPRNQPFVFSLGTGERIKGWDQGLLGMCEGEKRKLVIPSELGYGERGWPPKIPGGATLVFEVELLKIER", "values": [
      {"measurement": "Fold Change", "result": 44}
    ]},
    {"molecule": "FKBP-287: FKBP13 DRD-AcGFP construct of Table 10 (protein, Description of sequence: Construct Name: FKBP-287; Mutation(s): Q72R Q74W Q84E A117W V85R E130F K120I) HCPIKSRKGDVLHMHYTGKLEDGTEFDSSLPRNWPFVFSLGTGERIKGWDQGLLGMCEGEKRKLVIPSELGYGERGWPPIIPGGATLVFFVELLKIER", "values": [
      {"measurement": "FC", "setting": "FIG. 37", "result": 47.09},
      {"measurement": "Peak", "setting": "FIG. 37", "result": 1747},
      {"measurement": "Fold Change", "result": 47.09}
    ]},
    {"molecule": "FKBP-273: FKBP13 DRD-AcGFP construct of Table 10 (protein, Description of sequence: Construct Name: FKBP-273; Mutation(s): Q72R Q84E A117W V85R DRD E114G) HCPIKSRKGDVLHMHYTGKLEDGTEFDSSLPRNQPFVFSLGTGERIKGWDQGLLGMCEGEKRKLVIPSELGYGGRGWPPKIPGGATLVFEVELLKIER", "values": [
      {"measurement": "FC", "setting": "FIGS. 33 and 34", "result": 36},
      {"measurement": "Fold Change", "result": 36}
    ]}
  ]
}
